Test results: patent US20100081612A1 (GENERAL HOSPITAL, published 2010)
Like-named read-outs stand apart in the source and are kept apart here. Where no end group is shown, it is not given here. [ ]: non-standard residue; d: D form. Cha = N[C@@H](CC1CCCCC1)C(=O)O

What was measured:
[1] = target: T1, rat PTHR endogenously expressed in ROS 17/2.8 cells (rat, UniProt P25961 27-591); test: cell-based or functional assay
T1 sequence (looked up): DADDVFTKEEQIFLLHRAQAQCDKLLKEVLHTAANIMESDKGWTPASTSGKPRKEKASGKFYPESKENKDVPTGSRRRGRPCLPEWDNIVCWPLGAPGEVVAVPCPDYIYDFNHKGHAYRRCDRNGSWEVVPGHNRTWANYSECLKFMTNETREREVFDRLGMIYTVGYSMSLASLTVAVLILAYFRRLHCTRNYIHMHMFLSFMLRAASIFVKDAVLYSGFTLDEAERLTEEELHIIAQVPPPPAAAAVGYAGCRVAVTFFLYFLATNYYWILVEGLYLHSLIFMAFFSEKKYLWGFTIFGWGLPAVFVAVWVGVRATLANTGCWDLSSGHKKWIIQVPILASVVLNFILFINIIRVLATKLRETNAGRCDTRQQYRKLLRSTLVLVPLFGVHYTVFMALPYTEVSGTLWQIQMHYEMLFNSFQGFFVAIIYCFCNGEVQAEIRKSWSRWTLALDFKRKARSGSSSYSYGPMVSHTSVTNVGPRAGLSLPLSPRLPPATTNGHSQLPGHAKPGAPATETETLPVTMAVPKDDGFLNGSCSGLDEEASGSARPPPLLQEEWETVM

wild-type human PTHR [2] = target: T2, wild-type human PTHR (human, UniProt Q03431 27-593); test: competition binding, HKRK-B7 cells, 125I-PTH(1-34) tracer
T2 construct: whole, on cells; also called PTHR-WT; intact PTHR
T2 sequence (looked up): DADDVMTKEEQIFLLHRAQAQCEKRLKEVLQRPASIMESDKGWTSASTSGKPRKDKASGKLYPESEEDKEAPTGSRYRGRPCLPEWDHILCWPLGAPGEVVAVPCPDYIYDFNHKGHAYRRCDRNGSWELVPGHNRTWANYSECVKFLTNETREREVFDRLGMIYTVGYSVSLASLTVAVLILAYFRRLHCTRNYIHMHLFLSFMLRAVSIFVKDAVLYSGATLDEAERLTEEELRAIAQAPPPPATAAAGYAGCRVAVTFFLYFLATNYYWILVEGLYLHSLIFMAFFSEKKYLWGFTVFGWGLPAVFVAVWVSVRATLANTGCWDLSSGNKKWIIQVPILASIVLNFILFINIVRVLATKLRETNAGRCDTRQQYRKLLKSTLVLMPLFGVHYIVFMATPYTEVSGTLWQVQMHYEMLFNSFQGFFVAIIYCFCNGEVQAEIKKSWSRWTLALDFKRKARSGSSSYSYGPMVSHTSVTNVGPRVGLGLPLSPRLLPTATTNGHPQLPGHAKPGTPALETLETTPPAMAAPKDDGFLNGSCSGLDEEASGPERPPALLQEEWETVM

wild-type human PTHR [3] = target: T2, wild-type human PTHR; test: as above; remark: listed apart in the source
Method in brief: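 Intact HKRK-B7 cells stably expressing hPTHR incubated 4 h at 15° C with ¹²⁵I-PTH(1-34) tracer and unlabeled peptide (3×10⁻⁹ to 1×10⁻⁵ M). Nonspecific binding defined with 1×10⁻⁶ M PTH(1-31)NH₂. Bound activity counted after lysis and expressed as % specific binding without competitor; values in nM, mean ± s.e.m.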

PTHR-delNt (human) = PTHR-delNt (human) (UniProt Q03431); test: competition binding, COS-7 membranes, 125I-[Aib1,3,M]PTH(1-15) tracer
[4] = target: T1, rat PTHR endogenously expressed in ROS …; test: competition binding, ROS 17/2.8 cells, 125I-PTH(1-34) tracer
Method: Receptor binding—Binding to the wild-type human PTHR in intact HKRK-B7 cells and ROS 17/2.8 cells was assessed using ¹²⁵I-PTH(1-34) as a tracer radioligand, as described (Shimizu, M., (2001) Endocrinology 142:3068-3074). In brief, the cells in 24-well plates (about 500,000 cells per well) were incubated in binding buffer containing radioligand (about 100,000 cpm per well) with or without unlabeled peptide ligand (3×10⁻⁹ to 1×10⁻⁵ M) for four hours at 15° C. The binding mixture was then removed by aspiration, the cells were rinsed three times with binding buffer, lysed in 1 M NaOH, and the entire lysate was counted for gamma-irradiation in a gamma counter. Binding to PTHR-delNt in COS-7 cell membranes was assessed in 96-well, vacuum filtration plates (Multiscreen-Durapore HV, […], Millipore Corp., Millford, Mass.) using ¹²⁵I-[Aib^{1,3},M]PTH(1-15)NH₂ as a tracer radioligand, as described (Dean, T., (2006) Mol Endocrinol 20:931-942). In brief, cell membranes (20 μg/well) were incubated in membrane binding buffer containing radioligand (30,000 cpm/well) with or without unlabeled peptide ligand (3×10⁻⁹ to 1×10⁻⁵ M) for 90 minutes at 21° C. The plates were then subject to rapid vacuum filtration, the filters were washed once with buffer, detached from the plate and counted for gamma-irradiation in a gamma counter. Non-specific binding was defined as the binding observed in the presence of 1×10⁻⁶ M PTH(1-31)NH₂ for HKRK-B7 and ROS 17/2.8 cells, and 1×10⁻⁶ M [Aib^{1,3},M]PTH(1-15)NH₂ for PTHR-delNt. Specifically bound radioactivity was calculated as a percentage of the radioactivity specifically bound in the absence of competing ligand.
Effects on cAMP and IP signaling—Selected analogs of [Ala¹,Arg¹⁹]hPTH(1-31)NH₂ with substitutions that markedly impaired binding to HKRK-B7 cells were assessed for their capacity to bind to the PTHR in ROS 17/2.8 cells and to stimulate cAMP-signaling responses in these cells. These bone-derived cells endogenously express the rat PTHR at a more physiological level than is found in HKRK-B7 cells (approximately 80,000 PTHRs per cell vs. 950,000 PTHRs per cell) and, have generally been found (data not shown) to yield closer correlations between PTH analog binding affinity and cAMP-signaling potency than do HKRK-B7 cells, presumably due to their lower PTHR expression level.

wild-type human PTHR [5] = target: T2, wild-type human PTHR; test: cell-based or functional assay
wild-type human PTHR [6] = target: T2, wild-type human PTHR; test: competition binding, HKRK-B7 cells, 125I-PTH(1-34) tracer; remark: listed apart in the source
Method in brief: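 Intact HKRK-B7 cells incubated 4 h at 15° C with ¹²⁵I-[Nle⁸,²¹,Tyr³⁴]ratPTH(1-34)NH₂ tracer and unlabeled peptide at 3×10⁻⁹ to 1×10⁻⁵ M; lysate gamma-counted. Non-specific binding defined with 1×10⁻⁶ M PTH(1-31)NH₂. Specific binding expressed as % of that without competitor.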

B1: [Ala^1,Arg^19]hPTH(1-31)NH2 Arg^20→Cha (peptide)
peptide: AVSEIQLMHNLGKHLNSMR[Cha]VEWLRKKLQDV-NH2
modifications: N-terminus assumed
SMILES: CC[C@H](C)[C@H](NC(=O)[C@H](CCC(=O)O)NC(=O)[C@H](CO)NC(=O)[C@@H](NC(=O)[C@H](C)N)C(C)C)C(=O)N[C@@H](CCC(N)=O)C(=O)N[C@@H](CC(C)C)C(=O)N[C@@H](CCSC)C(=O)N[C@@H](Cc1c[nH]cn1)C(=O)N[C@@H](CC(N)=O)C(=O)N[C@@H](CC(C)C)C(=O)NCC(=O)N[C@@H](CCCCN)C(=O)N[C@@H](Cc1c[nH]cn1)C(=O)N[C@@H](CC(C)C)C(=O)N[C@@H](CC(N)=O)C(=O)N[C@@H](CO)C(=O)N[C@@H](CCSC)C(=O)N[C@@H](CCCNC(=N)N)C(=O)N[C@@H](CC1CCCCC1)C(=O)N[C@H](C(=O)N[C@@H](CCC(=O)O)C(=O)N[C@@H](Cc1c[nH]c2ccccc12)C(=O)N[C@@H](CC(C)C)C(=O)N[C@@H](CCCNC(=N)N)C(=O)N[C@@H](CCCCN)C(=O)N[C@@H](CCCCN)C(=O)N[C@@H](CC(C)C)C(=O)N[C@@H](CCC(N)=O)C(=O)N[C@@H](CC(=O)O)C(=O)N[C@H](C(N)=O)C(C)C)C(C)C
notes: also called Cha^20 analog
[1]
  cAMP EC50, ROS 17/2.8 cells: 7.5 nM
wild-type human PTHR [2]
  fold reduction in binding affinity vs [Ala^1,Arg^19]PTH(1-31)NH2: 120 fold
wild-type human PTHR [3]
  IC50: 4740 nM
PTHR-delNt (human)
  IC50: 632 nM
  fold change in binding affinity vs [Ala^1,Arg^19]PTH(1-31)NH2: < 3 fold
[4]
  IC50: 290 nM

## SVSEIQLMHNLGKHLNSMERVEWARKKLQDV-NH2 [PTH(1-31)NH2 Leu^24→Ala]
wild-type human PTHR [5]
  inositol phosphate (IP) production, peptide at 1×10^-6 M: 4 fold
wild-type human PTHR [2]
  fold reduction in binding affinity vs PTH(1-31)NH2: 12 fold
wild-type human PTHR [6]
  IC50: 807 nM
PTHR-delNt (human)
  IC50: 8760 nM
  fold reduction in binding affinity vs PTH(1-31)NH2: 2 fold

## SVSEIQLMHNLGKHLNAMERVEWLRKKLQDV-NH2 [PTH(1-31)NH2 Ser^17→Ala]
wild-type human PTHR [5]
  inositol phosphate (IP) production, peptide at 1×10^-6 M: 4 fold
wild-type human PTHR [2]
  fold change in binding affinity vs PTH(1-31)NH2: ≤ 2 fold
wild-type human PTHR [6]
  IC50: 57 nM
PTHR-delNt (human)
  IC50: 4580 nM

## SVSEIQLMHNLGKHLNSMERVEWLRAKLQDV-NH2 [PTH(1-31)NH2 Lys^26→Ala]
wild-type human PTHR [5]
  inositol phosphate (IP) production, peptide at 1×10^-6 M: 4 fold
wild-type human PTHR [2]
  fold change in binding affinity vs PTH(1-31)NH2: ≤ 2 fold
wild-type human PTHR [6]
  IC50: 125 nM
PTHR-delNt (human)
  IC50: 6210 nM

## AVSEIQLMHNLGKHLNSMRRVEWERKKLQDV-NH2 [[Ala^1,Arg^19]hPTH(1-31)NH2 Leu^24→Glu]
[1]
  cAMP EC50, ROS 17/2.8 cells: 250 nM
wild-type human PTHR [2]
  fold reduction in binding affinity vs [Ala^1,Arg^19]PTH(1-31)NH2: ≥ 150 fold
wild-type human PTHR [3]
  IC50: > 10000 nM
PTHR-delNt (human)
  IC50: 1040 nM
  fold reduction in binding affinity vs [Ala^1,Arg^19]PTH(1-31)NH2: < 3 fold
[4]
  IC50: 29000 nM

## SVSEIQLMHNLGKHLNSMERVEALRKKLQDV-NH2 [PTH(1-31)NH2 Trp^23→Ala]
wild-type human PTHR [5]
  inositol phosphate (IP) production, peptide at 1×10^-6 M: 4 fold
wild-type human PTHR [2]
  fold reduction in binding affinity vs PTH(1-31)NH2: 19 fold
wild-type human PTHR [6]
  IC50: 1310 nM
PTHR-delNt (human)
  IC50: 7360 nM
  fold reduction in binding affinity vs PTH(1-31)NH2: 2 fold

## SVSEIQLMHNLGKHLNSAERVEWLRKKLQDV-NH2 [PTH(1-31)NH2 Met^18→Ala]
wild-type human PTHR [5]
  inositol phosphate (IP) production, peptide at 1×10^-6 M: 4 fold
wild-type human PTHR [2]
  fold change in binding affinity vs PTH(1-31)NH2: ≤ 2 fold
wild-type human PTHR [6]
  IC50: 92 nM
PTHR-delNt (human)
  IC50: 8800 nM

## AVSEIQLMHNLGKHLNSMREVEWLRKKLQDV-NH2 [[Ala^1,Arg^19]hPTH(1-31)NH2 Arg^20→Glu]
[1]
  cAMP EC50, ROS 17/2.8 cells: 59 nM
wild-type human PTHR [2]
  fold reduction in binding affinity vs [Ala^1,Arg^19]PTH(1-31)NH2: ≥ 150 fold
wild-type human PTHR [3]
  IC50: > 10000 nM
PTHR-delNt (human)
  IC50: 776 nM
  fold reduction in binding affinity vs [Ala^1,Arg^19]PTH(1-31)NH2: < 3 fold
[4]
  IC50: 5800 nM

B2: [Ala^1,Arg^19]hPTH(1-31)NH2 (peptide)
peptide: AVSEIQLMHNLGKHLNSMRRVEWLRKKLQDV-NH2
notes: also called [Ala^1,Arg^19]PTH(1-31)NH2; [Ala^1,Arg^19]PTH(1-31)
[1]
  cAMP EC50, ROS 17/2.8 cells: 0.78 nM
wild-type human PTHR [3]
  IC50: 38 nM
PTHR-delNt (human)
  IC50: 397 nM
[4]
  IC50: 1.6 nM

## AVSEIQLMHNLGKHLNSMRRVEELRKKLQDV-NH2 [[Ala^1,Arg^19]hPTH(1-31)NH2 Trp^23→Glu]
[1]
  cAMP EC50, ROS 17/2.8 cells: 4 nM
wild-type human PTHR [3]
  IC50: 6040 nM
PTHR-delNt (human)
  IC50: 434 nM
  fold reduction in binding affinity vs [Ala^1,Arg^19]PTH(1-31)NH2: < 3 fold
[4]
  IC50: 220 nM

## AVSEIQLMHNLGKHLNSMRRVEWLRKKEQDV-NH2 [[Ala^1,Arg^19]hPTH(1-31)NH2 Leu^28→Glu]
[1]
  cAMP EC50, ROS 17/2.8 cells: 11 nM
wild-type human PTHR [3]
  IC50: 10400 nM
PTHR-delNt (human)
  IC50: 974 nM
  fold reduction in binding affinity vs [Ala^1,Arg^19]PTH(1-31)NH2: < 3 fold
[4]
  IC50: 3100 nM
